From US20110262366A1 (published 2011)
Starred links: 1 amine or outer side, 2 acyl side, 3 side chain; linkers in the order of their positions; H or OH if unused. No end group written: not given here. NH(CH2)3(OCH2CH2)2O(CH2)3NH = C(CN[*:1])COCCOCCOCCCN[*:2]; Oregon Green = Oregon Green fluorescent reporter dye

Target: T1, NP-1/Fc (Neuropilin-1/Fc, R&D Systems)
T1 construct: Bought reagent; also called Npn-1
Assay: competition with 250 pM ^125I-VEGF165 on NP-1/Fc-coated plates, 4° C., 2 h
Experimental: The next day all wells, even control wells lacking NP-1/Fc, were blocked 2 hrs with blocking buffer (1% BSA in D-PBS with 0.05% v/v Tween-20) then washed 4× with PBST (D-PBS/0.05% v/v Tween-20) before starting the assay. All points were derived from triplicate wells, and for each set of replicates in NP-1/Fc-coated wells, a companion set in the absence of the receptor was included. […] After addition of the appropriate solutions, microtiter plates were incubated at 4° C. for 2 hours. Following the incubation, plates were hand-washed 5 times with D-PBS containing 0.05% Tween-20 and 0.1% BSA. […] VEGF₁₆₅ (Cat. No. 100-20) was obtained from Peprotech.

T1 sequence (Q9QWJ9 22-855): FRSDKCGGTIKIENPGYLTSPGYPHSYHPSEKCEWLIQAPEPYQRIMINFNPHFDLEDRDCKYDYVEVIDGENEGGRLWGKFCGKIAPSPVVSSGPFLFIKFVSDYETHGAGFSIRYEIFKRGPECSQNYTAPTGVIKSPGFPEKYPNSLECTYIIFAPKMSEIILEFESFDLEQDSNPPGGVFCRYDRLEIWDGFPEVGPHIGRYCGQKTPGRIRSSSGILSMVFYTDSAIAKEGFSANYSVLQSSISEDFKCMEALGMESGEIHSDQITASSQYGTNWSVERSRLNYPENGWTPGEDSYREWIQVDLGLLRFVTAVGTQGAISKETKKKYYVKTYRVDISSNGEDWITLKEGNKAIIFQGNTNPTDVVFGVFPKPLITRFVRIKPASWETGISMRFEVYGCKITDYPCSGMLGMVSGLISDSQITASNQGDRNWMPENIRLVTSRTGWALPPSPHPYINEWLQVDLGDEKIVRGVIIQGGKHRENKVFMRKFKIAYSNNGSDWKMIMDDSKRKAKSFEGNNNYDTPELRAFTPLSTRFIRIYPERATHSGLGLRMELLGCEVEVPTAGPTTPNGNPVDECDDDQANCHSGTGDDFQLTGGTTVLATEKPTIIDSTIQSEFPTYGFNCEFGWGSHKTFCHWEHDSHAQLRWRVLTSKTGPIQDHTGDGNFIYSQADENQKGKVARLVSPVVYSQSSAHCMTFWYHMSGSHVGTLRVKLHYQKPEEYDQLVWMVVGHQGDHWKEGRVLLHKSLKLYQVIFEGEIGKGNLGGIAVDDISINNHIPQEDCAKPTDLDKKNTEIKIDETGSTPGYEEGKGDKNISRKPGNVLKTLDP

- IC50: 8 µM
B1: Tetramer BRU-346: TKPPR-K(RPPKT)-K[K(RPPKT)TKPPR]-G-Z-OG (peptide)
chain: TKPPRKRPPKTKKRPPKTTKPPRG-{NH(CH2)3(OCH2CH2)2O(CH2)3NH-Oregon Green}
modifications: also: branched on lysine core: TKPPR units linked via C-terminal Arg to Lys side chains, letters 7-11 and 14-18 written reversed, not a linear chain
notes: also called Reverse Tetramer; tetrameric TKPPR linked to a different scaffold through the C-terminal amino acid
